assay: yeast display, Sf9 membrane polyspecificity reagent, FACS + sequencing; frameworks hold sequencing errors
In short: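 A nanobody's polyreactivity label depends on the gate it was sorted from. Yeast display cells were stained with 10% biotinylated, detergent-solubilized Sf9 membrane reagent for 1 hour at 4 °C, enriched on streptavidin microbeads and sorted by FACS. The low and high (top ~1%) gates were set on anti-HA fluorescence for expression and streptavidin fluorescence for reagent binding.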

Sequence	polyreactivity (PSR sort gate)
QVQLVESGGGLVQAGGSLRLSCAASGLTFYQYAMGWYRQAPGKERELVAAISQSAGSTYYADSVKGRFTISRDNAKNTVYLQMNSLKPEDTAVYYCAARVLRLRYDYWGQGTQVTVSS	high polyreactivity
QVQLVESGGGLVQAGGSLRLSCAASGFIFAWYAMGWYRQAPGKEREMVAAITSGGRTYYADSVKGRFTISRDNAKNTVYLQMNSLKPEDTAVYYCATDAVASHRPYKYGPQSGSWGQGTQVTVSS	high polyreactivity
QVQLVESGGGLVQAGGSLRLSCAASGSTFGFYTMGWYRPAPGKERELVAAISWSTGRTYYADSVKGRFTISRDNAKNTVYLQMNSLKPEDTAVYYCAARAVDKYRFGGRYDYWGQGTQVTVSS	low polyreactivity
QVHHVESGGGLVQAGGSLRLSCAASGSTFYGYALGWYRQAPGKERELVAAITGSGDTTYYADSVKGRFTISRDNAKYTVYLQMNSLKPEDTAVYYCNRDYRSDLGYADQSWTDQYDHWGQGTQVTVSS	low polyreactivity
QVQLVESGGGLVQAGGSLRLSCAASGRIFAGYTMGWYRPAPGKERELVAAIRSSGRTHYADSVKGRFTISRDNAKNTVYLQMYSLKPEDTAVYYCAARWTYTFAYRFDYWGQGTQVTVSS	high polyreactivity
QVQLVESGGGLVQAGGSLRLSCAASGSTLYVYTMGWYRQAPGKERELVAGITRGGSTYYADSVKGRFTISRDNAKNTVYLQMNSLKPEDTAVYYCAARSSYREYYWGQGTQVTVSS	high polyreactivity
QVQLVESVGGLVQAGGSLRLSCAASGRIFWGYDMGWYRQAPGKEREFVAAISSGGGRTYYADSVKGRFTISRDNAKNTVYLQMNSLKPEDTAVYYCNADSGSYWVPRGYEYWGQGTRVTVSS	low polyreactivity
QVQLVESGGGLVQAGGSLRLSCAASGGIFAPYAMGWYRQAPGKERELVAAISSSDGSTYYADSVKGSFTISRDNAKNTVYLQMNSLKPEDTAVYYCAADYREDYGYWGQGTQVTVSS	low polyreactivity
QVQLVESGGGLVQAGGSLRLSCAASGRTFKYYAMGWYRQAPGKERELVAAISYNGGSTFYADSVKGRFTFSRDNAKNTVYLQMNSLKPEDTAVYYCAAGPRGTGKYYWGQGTQVTVSS	high polyreactivity
QVQLVESGGGLVQAGGSLRLSCAASGFTFDGYAMGSYRQAPGKERELVAAISDSGDSTYYADSVKGRFTISRDNAKNTVYLQMNSLKPEDTAVYYCAAPSVGYYDPTDFDYWGQGTQVTVSS	low polyreactivity
QVKLVESGRGLVQAGGSLRLSCAASGITFRSYAMGWYINATGKERELVATLSSSGGNTNYADSVKGRFTISRDNAKNTVYLQMNSLKPEDTAVYYCAAELWRYYYVVPGRYDDWGQGTQVTVSS	high polyreactivity
QVQLVESGGGLVQAGGSIRLICAASGFIISWYAMGWYRQAPGKERELFAAISSGGSTTYADSVKGRFTISRDNAKNTVYLQMNSLKPEDTAVYYCNADQVYGYNYWGQGTQVTVSS	high polyreactivity
QVQLVESGGGLVQAGGSLRLSCAASGRTFAWYAMGWYRQAPGKERELVAAITTRGSGTYYADSVKGSFTISRDNAKNTVYLQMHSLKPEDTAVYYCAKDPITATTLDERVYYWGQGTQVTVSS	low polyreactivity
QVQLVESGGGLVPAGGSLRLSCAASGRIITINAIGWYRKAPGKERELVAAISNSGGRTYADSVKGRFTISRDNAKNTVYLQMNSLKPEDTAVYYCAKRYRFHFWGQGTQVTVSS	low polyreactivity
QVQLVESGGGLDQAGGSLRLTCAASGRTFSRNAMGWYRQAPGKERELVAAISGSGGTTYYADSVKGRFTISRDNAKNTVYLQMKSLKPEDTAVYYCAADLRYAWVFWYEYWGLGTQVTVSS	low polyreactivity
QVQLVESGGGLVQAGGSLRLSCAASGITFTGYAMGWYRQAPGKERELVAVISETGGSTYADSVKGRFTISRDNAKNTVYLQMNSLKPEDTAVYYCAARLWWPYSTAWAKMDYWGQGTQVTVSS	low polyreactivity
QVQLVESGGGLVQAGGSLRLSCAASGRIFLYYAMGWYRQAPGKERELVAAITSSGGDTYYADSVKGRFTISRDNANNTVYLQMYSLKPEDTAVYYCAAYSWWNEYDYWGQGTQVTVSS	high polyreactivity
QVQLVESGGGLVQAGGSLRLSCAASGSTFDPNDMGWYRPAPGKERQLVASITSRGGSTYYADSVKGRFTISRDNAKNTVYLQMNSLKPEDTAVYYCAAVGGATYSWNGYSWYPWHNYWGQGTQVTVSS	low polyreactivity
QVQLVESGGGLVQAGGSLRLSCAASGFTFGGYAMGWYRQAPGKERGLVAAISGSGGRTYYADSVKGRFTISRDNAKNTVYLQMNSLKPEDTAVYYCAAETVTRSFYSEYDYWGQGTQVTVSS	low polyreactivity
QVQLVESGGGLVQAGGSLRLSCAASGNIFTSYAMGWYRQAPGKERELVAAISSGGRTSYADSVKGRFTISRDNAKNTVYLQMNSLKPEDTAVYYCAAYYRRWPREYYYWGQGTQVTVSS	high polyreactivity
QVQLVESGGGLVQAGGSLRLSCAASGFNFNNNGMGWYRQAPGKERELDAAISYSGGRTYYADSVKGRFTISRDNAKNTLYLQMNSLKPEETAVYYFADNSYYSRYDYWGQGTQVTVSS	low polyreactivity

Sequence	polyreactivity (PSR sort gate)
QVQLVESGGGLVQAGGSLRLSCAASGSIFGGYTMGWYRQPPGKERELVATISRRGGRTYYADSVKGRFTISRDNAKNTVYLQMNSLKPEDTAVYYCAARWGRGLEFDYWGQGTQVTVSS	high polyreactivity
QVQLVESGGGLVQAGGSLRLSCDASGSTIKYYAMGWYRQAPGTEMELVARITSDCGSTFYADSVKGRFTISRDNAKNTVYLLMNRLKPEDTAVYYCNTDYAFRHCWFYPMDYWGQGTQVTVSS	high polyreactivity
QVQLVESGGGLVQAGGSLRLSCAASGFTFYYYAMGWYRQAPGKERELVAAITKNGGRTFYADSVKGRFTISRDNAKNTVYLQMNSLKPEDTAVYYCATVGNWPDYYYWGQGTQVTVSS	high polyreactivity
QVQLVESGGGLVQAGGSLRLSCAASGRIFYSYAMGWYRQAPGKERELVAAITVSGGSTFYADSVKGRFTISRDNAKNTVYLQMNSLKPEDTAVYYCAATRFSQYDWGQGTQVTVSS	high polyreactivity
QVQLVESGGGLVQAGGSLRLSCAASGRIFPYYAMGWYRQAPGKERELVAAISQSGGSTNYADSVKGRFTISRDNAKNTVYLQLNSLKPEDTAVYYCNVDVSRSWAQPYTYDYWGQGTQVTVSS	low polyreactivity
QVQLVESGGGLVQAGGSLRLSCAASGFTFRLNAMGWYRQAPGPERELVAAITRSGGNTYYADSVKGRFTIPRDNAKNTVYLQMNSLKPEDTAVYYCAARYFYWFRPTEYYYWGQGTQLTVSS	high polyreactivity
QDQLVESGGGLVQAGGSLRLSCAASGRIFGYYTMGWSRPAPGKERELVAGITRRGGRTYYADSVKGRFTISRDNAKNTVYLQMNSLKPEDTGVYYCAVRSGVNFYYWGQGTQVTVSS	high polyreactivity
QVHLVESGGGLFQAGGSLRLSCAASGRTFYYYGMGWYRQAPGKERELVASITNGGNTNYADSVKGRFTISRDNAKNTVYLQMNSLKPEDTAVYYCANDVPYWRPVVRYDYWGQGTQVTVSS	low polyreactivity
QVQLVESVGGLVQAGGSLRLSCAASGGIFWVYAMGWYRQAPGKERELVAAISNSDTSTSYADSVKGRFTISRDNAKNTVYLQMNSLKPEDTAVYYCNADSPSLSGDYWGQGTQVTVSS	low polyreactivity
QVQLVESGGGLVQAGGSLRLSCAASGRIFVFNAMGWYRQAPGKERELVATIDRGGSTNYADSVKGRFTISRDNAKNTVYLQMNSLKPEDTAVYYCAAGVVGKRSRTGYYWGQGTQVTVSS	low polyreactivity
QVQLVESGGGLVQAGGSLRLSCAASGNTFADYAMGWYSQAPGKERELVADLTFSGGGTYYADSVKGRFTISRDNAKNTVYLQMNSLKPEDTPVYDCNADLDSYVGDEYDHWGQGTQVTVSS	low polyreactivity
QVQLVESGGGLVQAGGSLRLSCAASGSTFASYAMGWYRQAPGKEREFVAAISRSGGSTYYADSVKGRFTISRDNAKNTVYLQMNSLKPEDTAVYYCAARSPSADEYYYWGQGTQVTVSS	low polyreactivity
QVQLVESGGGLVQAGGSLRLSCAASGRILVVNAMGWYRQAPGKERELVAAISTTGGRTYYADSVKGRFTISRDNAKNTDYLQMISLKPEDTAVYYCAKDDGRFGRTHEHDYWGHGTQVTVSS	high polyreactivity
QVQLVESGGGLVQAGGILRLSCAASGSIYYAMGWYRQAPGKERELVAGINSSGSTNYADSVKGRFTISRDNAKNTVYLQMNSLKPEDTAVYYCAARAIVSFDYWGQGTQVTVSS	low polyreactivity
HVQHVESGGGLVQAGGSLRLSCAASGRTFGYYALGWYRQAPGKERELVARISTRGGSTNYADSVKGRFTISRDNAKNTVFLQMNSLKPEDTAVYSCYARGGYGGGYDYWVQGTQVTVSS	high polyreactivity
QVQLVESGGGLVQAGGSLRLSCAASGRTFKHYAMGGYRQAPGKERELVAAITSGGSTYYADSVKGRFTISRDNAKNTVYLQMNSLKPEDTAVYYCNKESYFDTYRRYDSWGQGTQVTVSS	low polyreactivity
QVQLVESGGGLVQAGGSLRLSCAASGRTFYRYVMGWYRQAPGKERALVAAITWSGGSTYYADSVKGRFTISRDNAKNTVYLQMNSLKPEDTAVYYCAKGLYDASRRYYYWGQGTQVTVSS	high polyreactivity
QVQLVESGGGLVQAGGSLRLSCAASGRIFASYAMGWYRQAPGKERELVAAISGSGASTYYADSVKGRFTISRDNAKNTVYLQMNSLKPEDTAVYYCAAKATSEGDEYWGQGTQVTVSS	high polyreactivity
QVQLVESGGGLVQAGGSLRLSCAASRIIFDDNAMGWYRQAPGKEMELVAAISRRGGSTYYADSVKGRFTISRDNAKNTVYLQMNSLKPEDTAVYYCAATTRTSSLYNYWGQGTQVTVSS	high polyreactivity
QVQLVESGGGLVQAGGSLRLSCAASGSTFPPNAMGWYRQAPGKERELVADSSDSSTYYADSVKGRFTISRDNAKNTVYLQMNSLKPEDNAVYYCAAADAGLRSKSYGQQYDYWGQGTQVTVSS	low polyreactivity
